From the nanobody polyreactivity screen of Harvey et al. (2022) come the findings set out here.

This series in a line: yeast display, Sf9 membrane polyspecificity reagent, FACS + sequencing; frameworks hold sequencing errors. The gist of the method: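 Using colony PCR, genes from sorted yeast display clones were amplified, then sequenced on MiSeq at 2 × 250 and filtered by CDR length. The clones had been stained with 10% biotinylated, detergent-solubilized Sf9 membrane reagent for 1 hour at 4 °C and sorted by FACS into low and high (top ~1%) gates on anti-HA and streptavidin fluorescence. Polyreactivity labels come from the gate of origin.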
For “QVQLVESGGGLVQAGGSLRLSSAASGLTFRYYALGWYRQAPGKERELVAAITRRGSTYYADSVKGRFTISRDNAKNTVYLQMNSLKPEDTAVYYCATVTGFHSSPLRDLDYWGQGTQVTVSS”, the “polyreactivity (PSR sort gate)” value is listed as “high polyreactivity”. Consider “QVQLVESGGGLVQAGGSLRLTCAASGRTFHAYVMGWYRQAPGKERELVADISSGGDTYADSVKGRFTISRDNAKNTVYLQMNSLKPEDTAVYYCAVDVIQDESGYWGQGTQVTVSS”, for which the “polyreactivity (PSR sort gate)” value is “low polyreactivity”. Then “QVQLVESGGGLVQAGGSLRLSCAASGFIYGSNAMGWYRQAPGKERELVAAISRSGGSTYYADSVKGRFTISRDNAKNTVYLQMNSLKPEDTAVYYCNVDLWTFVYSWWSYDYWGQGTQVTVSS”, with “high polyreactivity”. Turning to “QVQLVESGGGLVQAGGSLRLSCAASGSIFDTYVMGWYRQAPGKERELVAVISYSGTRTSYADSVKGRFTISRDNAKNTVYLQMNSLKPEDTAVYYCAARVTYYRTYRGRQYGYWGQGTQVTVSS”, the “polyreactivity (PSR sort gate)” value is recorded as “high polyreactivity”. With “QVQLVESGGGLVQAGGSLRLSCDASGFTFTAYAMGSYRQAPGKERELVAAINWSGSRTYYADSVKGRFTISRDNAKNTVYLQMNSLNPEDTAVYYCAAGWTSSRYDYWGQGTQVTVSS”, the “polyreactivity (PSR sort gate)” value was “high polyreactivity”. Turning to “QVQLVESGGGLVQAGVSLRLRCASSGFTFRPYAIGWYRQAPGKERELVAAITSGDSTNYADSVKGRFTISRDNEKNTVYLQMNSLKREDTAVYYCAADSTGRPSVSYDYWGQGTQVTVSS”, the “polyreactivity (PSR sort gate)” value is given as “low polyreactivity”. As to “QVQLVESGGGLVQAGGSLRLSCAASGSIFGLNAMGWYRQAPGKERELVAAINSDGDTYYADSVKGRFTISRDNAKNTVCLQMNSLKPEDTAVYYCAALQRRDHNGDYWGQGTQVTVSS”, the “polyreactivity (PSR sort gate)” value is reported as “low polyreactivity”.

As to “QVQLVESGGGLVQAGGSLRLSCAASGRIFRRYAMGWYRQAPGKERELVAAISSRGGSTYYADSVKGRFTISRDNAKNTVYLQMNSLKPEDTAVYYCNADVSASEYDYWGQGTQVTVSS”, the “polyreactivity (PSR sort gate)” value was “high polyreactivity”. In the case of “QVQLVESGGGLVQAGGSLRLSCAASGRIFFYNVMGWYRQAPGKERELVAAITTIGGSTYYADSVKGRFTISRDNAKNTVYLQMNTLKPEDTAVYYCAAGWVTNSDGMDYWGQGTQVTVSS”, the “polyreactivity (PSR sort gate)” value was “low polyreactivity”.

“QVQLVESGGGLVQAGGSLRLSCAASGSTFRWNAMGWYRQAPGKERELVASITSGGSTNYADSVKGRFTISRDNAKNTVYLQMNSLKPEDTAVYYCNADVRRSTYYVWLYDYWGQGTQVTVSS”: the “polyreactivity (PSR sort gate)” value is on record as “low polyreactivity”.

Take “QVQLVESGGGLVQAGGSLRLSCAASGYTFYYAMGWYRQAPGKERELVAAISAGGGRTYYADSVKGRFTISRDNAKNTVYLQMNSLKPEDTAVYYCNRVYRLTAYGYDYWGQGTQVTVSS”: the “polyreactivity (PSR sort gate)” value is “high polyreactivity”. As for “QVQLVESGGGLVQAGGSLRLSCAASGRIFYLNAMGWYRQAPGKERELVATISSGGSTNYADSVKGRFTISRDNAKNTVYLQMNSLKPEDTAVYYCARKSLRYSYVYRDYWGQGTQVTVSS”, the “polyreactivity (PSR sort gate)” value is given as “low polyreactivity”. “QVQLVESGAGLVQAGGSLSLSCAASGRTIVTNAMGWYRQAPGKERELVAAINGRGDNTYYADSVKGRFTISRDNAKNTFYLQMNSLKPEDTAVYYCAVRRGYHSHTKYYYWGLGTQVTVSS”: the “polyreactivity (PSR sort gate)” value is “high polyreactivity”. Turning to “QVQLVESGGGLVQAGGSLRLSCAASGRTFFYNTMGWYRQAPGKERELVAAITSSGGRTSYADSVKGRFTISRDNAKNTVYLQMNSLKPEDTAVYYCAALYSYYSLYDDYDYWGQGTQVTVSS”, the “polyreactivity (PSR sort gate)” value is “high polyreactivity”. For the sequence “QVQLVDSGGGLVQAGGSLRLSCAASGFIFGKNAMGWYRQAPGKERELVAVISWRGSSTNYADSVKGRFTISRDNAKNTVYLQMNSLKPEDTAVYYCAARYPARGTLYYWGQGTQVTVSS”, the “polyreactivity (PSR sort gate)” value was “low polyreactivity”.

For the sequence “QVQLVDSGGGLVQAGGSLRLSCAASGSIFPPYAMGWYRQAPGKERELVARISWSTSSTNYADSVKGRFTISRDNAKNTVYLQMNSLKPEVTAVYYCAADYYVFPGYDYWGQGTQVTVSS”, the “polyreactivity (PSR sort gate)” value was “high polyreactivity”. For “QVQLVESGGGLVQAGGSLRLSCAASGITFYTYAMGWYRQAPGKERELDAAITCSGGRTYYADSVKGRFTISRDNAKNSVYLQMNSLKPEDTAVYYCAALYVYRPRTPYGYWGQGTQVNVSS”, the “polyreactivity (PSR sort gate)” value is recorded as “high polyreactivity”. For “QVQLVESGGCLVQAGGSLRLSCAASGIIFYRYAMGWYRQAPGKERELVAAITYSGGRTYYADSVKARFTISRDNAKNTVYLQMNSLKTEDTAVSDCAAAGRFGDYWGQGTQVTVSS”, the “polyreactivity (PSR sort gate)” value was “high polyreactivity”. Regarding “QVQLVESGGGLVQAGGSLRLSCAASGFIFSWYAMGWYRQAPGKERELVAAISASGTSTYYADSVKGRFTISRDNAKNTVYLQMNSLKPEDTAVYYCAAEFVTEYLYGFVYEYDSWGQGTQVTVSS”, the “polyreactivity (PSR sort gate)” value is “low polyreactivity”. For the sequence “QVQLVESAGGLVQAGGSLSLSCAATGSILQEYAMGSYRQAPGTERELVAAITRRGGNTYYADSVKGRFTISRDNAKNTVYLQMNSLKPEDTAVYYCAAPHGKYSWQYEYWGQGTQVTVSS”, the “polyreactivity (PSR sort gate)” value is recorded as “low polyreactivity”. With “QVQLVESGGGLVQAGGSLRLSCAASGGIFAPYAMGWYRQAPGKERELVATISFSGGSTYYADSVKGRFTISRDNAKNTVYLQMNSLKPEDTAVYYCAKRYIYSLLYGLDYWGQGTQVTVSS”, the “polyreactivity (PSR sort gate)” value is reported as “low polyreactivity”. Turning to “QVQLVESGGGLVQAGGSLRLSSAASGSTFWVNTMGWYRQAPGKERELVAGSTSNGGSTSYADSVKGRFTITRDNAKNTVYLQKNSLKPEDTAVYYCNADTYPDYWAYLYDYWGQGTQVTVSS”, the “polyreactivity (PSR sort gate)” value is given as “low polyreactivity”. Regarding “QVQLVESGGGLVQAGGSLRLSCAASGGTFSFYTMGWYRQGPGKERELVAAIDSTGRTNYADSVKGRFTISRENAKNTVYLLMNSLKPDDTAVYYCSAGPPRADYDYWGQGTQVTVSS”, the “polyreactivity (PSR sort gate)” value is recorded as “low polyreactivity”. In the case of “QVQLVESGGGLVQAGGSLRLSCAASGYTFYSNAMGSYRQAPGKERELVASIRSRGRSTYYADSVKGRFTISRDNAKNTVYFQMNSLKPEDTAVYYCAALPNTPAVYAYDYWGQGTQVTVSS”, the “polyreactivity (PSR sort gate)” value is listed as “low polyreactivity”. “QVQHVESGGGLVQAGGSLRLSCAASGSTFRYYTMGWYRQAPGKERELVADITIGGSTYYADSVKGRFTISRDNAKNTVYLQMNSLKPEDTAVYYCAARSTGGRIFATGVAYDYWGQGTQVTVST”: the “polyreactivity (PSR sort gate)” value is reported as “low polyreactivity”. In the case of “QVQLVESGGGLVQAGGSLRLSCAGSGGIFGSNAMGWYREAPGKERALVAAISWRGGSTYYADSVKGRFTISRDNAKNSVYLQMNSLKPEDTAGYYCAARYRWGYSTSYSYRFHYWGQGTQVTVSS”, the “polyreactivity (PSR sort gate)” value is “high polyreactivity”. For “QVQLVESGGGLVQAGGSLRLSCAASGSTFRYYAMGWYRQAPGKERQLVAAISYRGGSTKYADSVKGRFTISRDNAKNTVYLQMNSLKPEDTAVYYCAADSYYDSKRYYWGQGTQVTVSS” the value was “high polyreactivity”; for “QVQLVESGGGLVQAGGSLRLICAASGSIFYRNAMGWYRQAPGKERELVAAISSDGSTNYADSVKGRFTISRDNAKNTVYLQMNSLKPEDTAVYYCAAPWTQILDYWGQGTQVTVSS”, “low polyreactivity”; for “QVPLVESGGGLVQAGGSLSLTCAASGRNLKYYDMGWYRQAPGKERELVAAISVSGTSTYYADSVKGRFTISRDNAKNTVYLQMNSLKPEDTAVYYCATATGRYSFDYWGQGTQVTLSS”, “low polyreactivity”. Turning to “QVQLVESGGGLVQAGGSLRLSCAASGRIFNRNAMGWYRQAPGKEREFVAAISRSGGTTYYADSVKGRFTFSRDNAKNTVYLQINSLKPEDTAFYYCNAVRYQTEVDYWGQGTQVTVSS”, the “polyreactivity (PSR sort gate)” value is recorded as “high polyreactivity”.
